Source: PMC6318328, “Structural insights into trans-histone regulation of H3K4 methylation by unique histone H4 binding of MLL3/4” (Nature Communications, 2019)
Values belong to the substance of their own block, whether it stands above or below them.

Tests used:
[1] = test system: recombinant nucleosomes (histone H3K4); test: In vitro histone methyltransferase (HMT) assay of MLL3/MLL4 constructs; format: biochemical; conditions: recombinant nucleosomes 0.5 μg, 2.5 μCi [3H]-SAM, 30 °C, 16 h, autoradiography (Fig. 3b, c)
Method: Mammalian expression plasmids encoding different fusions of MLL3 PHD and SET domains were subcloned into the pFLAG-CMV2 vector (Sigma-Aldrich, E7033) and were transiently expressed in HEK 293T cells (ATCC® ACS-4500™) by using Lipofectamine 2000 (ThermoFisher Scientific, 11668027) according to manufacturer’s protocol. Two days after transfection, cells were harvested and then lysed by mammalian lysis buffer (20 mM Tris-HCl, 137 mM NaCl, 1.5 mM MgCl2, 1 mM EDTA, 10% glycerol, 1% Triton X-100, 0.2 mM PMSF, 1 μg mL^−1 aprotinin, 2.5 μg mL^−1 leupeptin, and 1 μg mL^−1 pepstatin at pH 8.0). FLAG immunoprecipitation (FLAG IP) was performed in a similar way as described previously. In brief, total cell lysates were incubated with anti-FLAG M2 Affinity Gel (Sigma-Aldrich, A2220) in 4 °C for 5 h and were extensively washed with BC500 (20 mM Tris-HCl, 500 mM KCl, 1.5 mM MgCl2, 0.2 mM EDTA, 10% glycerol, 0.2 mM PMSF at pH 8.0). […]
HMT assay was performed according to a previously described method with minor modifications. […] The signals for HMT activity were detected by autoradiography. The input of the MLL3/4 proteins and nucleosomes were detected by mouse monoclonal anti-FLAG M2 (Sigma-Aldrich, F3165, 1:1000) and rabbit polyclonal anti-H3 antibody (Abcam, ab1791, 1:1000), respectively. […]

MLL4_(ePHD6)1475–1564 = biological target: T1, MLL4_(ePHD6)1475–1564 (Homo sapiens, UniProt O14686); test: ITC binding of histone peptides to MLL4 ePHD6 (1475–1564); design: key to ITC titration, Kd / Kd: NB: no detectable binding; conditions: for Kd / binding to ePHD6 of MLL4 (in words): ITC; for Kd: 20 mM Tris pH 7.5, 150 mM NaCl, 25 °C, protein 50–100 μM in cell, peptide 1–2 mM in syringe, single measurement, error from fitting curve; for ITC titration, Kd: Supplementary Fig. 4 and 7, MLL4_ePHD6, pH 7.5, 25 °C
T1 construct: MLL4_ePHD6, residues 1475–1564, and residues 1495–1564; GST (N, cleaved yes); His (N, cleaved yes); made in house; host or cells: E. coli BL21 (DE3) Codon plus RIL
Source text: (§1) The DNA fragments of MLL3 and MLL4 PHD domains (MLL3_ePHD6, residues 1055–1144 and residues 1075–1144; MLL3_PHD6, residues 1085–1144; MLL3_PHD5, residues 1009–1055; MLL3_PHD5-6, residues 1008–1144; MLL3_ePHD3, residues 436–525; MLL4_ePHD6, residues 1475–1564, and residues 1495–1564; MLL4_PHD6 residues 1505–1564 and MLL4_PHD5 residues 1429–1475) were subcloned into a modified pET28GST-LIC vector by T4 ligase-independent method (Clontech, 638920) to generate N-terminal GST, His-tagged fusion protein. The recombinant protein was overexpressed in E coli BL21 (DE3) Codon plus RIL (Stratagene) at 15 °C by induction with 0.25 mM IPTG at an OD600 of 0.8 and purified by affinity chromatography on Ni-nitrilotriacetate resin (Qiagen, 30250) followed by thrombin protease treatment to remove the tag. The protein was further purified by HiTrap Q HP column (GE Healthcare, 17115401) by using buffers with 20 mM Tris, pH 8.0, 1 mM DTT, 50 mM NaCl (low salt buffer) or 1 M NaCl (high salt buffer), and Superdex75 gel-filtration column (GE Healthcare, 28989333) by using a buffer containing 20 mM Tris, pH 7.5, 150 mM NaCl, 50 μM ZnCl2, and 1 mM DTT. For crystallization experiments, purified protein was concentrated to 5 mg mL^−1 in the same buffer as gel-filtration by using Amicon Ultra-15 Centrifugal Filter Units (Millipore Corporation, UFC901024).
(§2) For the ITC measurement, the concentrated proteins were diluted into 20 mM Tris, pH 7.5, 150 mM NaCl; the lyophilized peptides (Peptide 2.0 Inc.) were dissolved in the same buffer, and the pH value was adjusted by adding NaOH. Peptides concentrations were estimated from the mass. […] The protein with a concentration of 50–100 μM was placed in the cell chamber, and the peptides with a concentration of 1–2 mM in syringe was injected in 25 (19 for iTC-200) successive injections with a spacing of 180 s (150 s for iTC-200) and a reference power of 13 μcal s^−1 (6 μcal s^−1 for iTC-200). Control experiments were performed under identical conditions to determine the heat signals that arise from injection of the peptides into the buffer.

MLL3_(ePHD6)1055–1144 = biological target: T2, MLL3_(ePHD6)1055–1144 (Homo sapiens, UniProt Q8NEZ4); test: ITC binding of histone peptides to MLL3 ePHD6 (1055–1144); design: key to ITC titration, Kd / Kd: NB: no detectable binding; conditions: for Kd / binding to ePHD6 of MLL3 (in words): ITC; for Kd: 20 mM Tris pH 7.5, 150 mM NaCl, 25 °C, protein 50–100 μM in cell, peptide 1–2 mM in syringe, single measurement, error from fitting curve; for ITC titration, Kd: Supplementary Fig. 4 and 7, MLL3_ePHD6, pH 7.5, 25 °C
T2 construct: MLL3_ePHD6, residues 1055–1144 and residues 1075–1144; GST (N, cleaved yes); His (N, cleaved yes); made in house; host or cells: E. coli BL21 (DE3) Codon plus RIL
T2 sequence (Q8NEZ4 1055-1144): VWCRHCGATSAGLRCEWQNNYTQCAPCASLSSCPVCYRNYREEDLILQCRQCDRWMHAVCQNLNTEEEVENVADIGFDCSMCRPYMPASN
Source text: as §1, §2

[2] = test system: fourth (PHD4), fifth (PHD5), and sixth (PHD6) PHD domains of MLL4; conditions: peptide pull-down; histone H4 fragment containing the first 23 amino acids; ref [29]; cited from earlier work
Source text: (§3) Both MLL3 and MLL4 are multi-domain proteins, containing not only the catalytic SET domain but also a few other domains, including two clusters of PHD domains (Fig. 1a). […] The interaction between histone H4_1–23 and PHD6 do ...

PHD6 domain of MLL4 = conditions: ITC; ref [29]; cited from earlier work
Source text: as §3

[3] = Gel filtration, oligomeric state in solution; format: physicochemical; conditions: Superdex200 10/300 GL, 20 mM Tris pH 7.5, 150 mM NaCl, 50 μM ZnCl2, 1 mM DTT
Method: Supplementary Fig. 3 Superimposition of gel-filtration curves of PHD6 and ePHD6 domains of MLL3 and MLL4. Gel filtration chromatography of MLL3 ePHD6 (red), PHD6 (pink), MLL4 ePHD6 (brown), PHD6 (green) and protein molecular weight standards (blue, Bio-Rad). Samples were loaded to the Superdex200 10/300 GL (GE Healthcare) column in the buffer containing 20 mM Tris, pH 7.5, 150 mM NaCl, 50 μM ZnCl2,and1mMDTT. […]

T1 sequence (O14686 1475-1564): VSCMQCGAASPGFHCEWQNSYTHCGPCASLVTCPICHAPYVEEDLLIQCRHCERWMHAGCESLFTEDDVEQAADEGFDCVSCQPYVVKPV

Substance: 1M: W1109A single point mutation of MLL3
nucleosomal methyltransferase activity [1]: reduced the enzyme activity

Substance: 2M: W1109A/E1120A double point mutation of MLL3
nucleosomal methyltransferase activity [1]: reduced the enzyme activity

Substance: H4R3me0: histone H4 fragment containing the first 23 amino acids, unmethylated
recognition by PHD4, PHD5 and PHD6 of MLL4 [2]: able to recognize

Substance: H4R3me2a: histone H4 fragment containing the first 23 amino acids, asymmetrically dimethylated on histone H4R3
recognition by PHD4, PHD5 and PHD6 of MLL4 [2]: able to recognize

Substance: H4_1–23: histone H4 fragment containing the first 23 amino acids
interaction with PHD6 domain (PHD6 domain of MLL4): confirmed

Substance: MLL3 PHD6: PHD6 domain of MLL3 (SSCPVCYRNYREEDLILQCRQCDRWMHAVCQNLNTEEEVENVADIGFDCSMCRPYMPASN; left off: GST, N-terminal, cleaved | His tag, N-terminal, cleaved)
oligomeric state in solution [3]: monomer in solution

Substance: MLL4 PHD6: PHD6 domain of MLL4 (VTCPICHAPYVEEDLLIQCRHCERWMHAGCESLFTEDDVEQAADEGFDCVSCQPYVVKPV; left off: GST, N-terminal, cleaved | His tag, N-terminal, cleaved)
oligomeric state in solution [3]: dimer in solution

More lines, main results first:

Kd (MLL4_(ePHD6)1475–1564): NB
Kd (MLL3_(ePHD6)1055–1144): NB
Substance: H3_1–20: histone H3 peptide, residues 1–20

Kd (MLL4_(ePHD6)1475–1564): NB
Kd (MLL3_(ePHD6)1055–1144): NB
Substance: H4_1–12: histone H4 peptide covering the first 12 residues
binding to ePHD6 of MLL4 (in words) (MLL4_(ePHD6)1475–1564): neither MLL3 nor MLL4 displayed detectable binding
binding to ePHD6 of MLL3 (in words) (MLL3_(ePHD6)1055–1144): neither MLL3 nor MLL4 displayed detectable binding

Kd (MLL4_(ePHD6)1475–1564): NB
Kd (MLL3_(ePHD6)1055–1144): NB
Substance: H4_1–12R3me2a: histone H4 peptide covering the first 12 residues, asymmetrically methylated (H4R3me2a)

ITC titration, Kd (MLL4_(ePHD6)1475–1564): NB
ITC titration, Kd (MLL3_(ePHD6)1055–1144): NB
Substance: H41–24H18A: histone H4-derived mutant peptide

ITC titration, Kd (MLL4_(ePHD6)1475–1564): NB
ITC titration, Kd (MLL3_(ePHD6)1055–1144): NB
Substance: H411–21H18A: histone H4-derived mutant peptide (GKGGAKRARKV; UniProt P62805 12-22, looked up, variant H18A)

binding to ePHD6 of MLL4 (in words) (MLL4_(ePHD6)1475–1564): weakened the binding significantly
ITC titration, Kd (MLL4_(ePHD6)1475–1564): Weak binding
binding to ePHD6 of MLL3 (in words) (MLL3_(ePHD6)1055–1144): weakened the binding significantly
ITC titration, Kd (MLL3_(ePHD6)1055–1144): Weak binding
Substance: H411–21K16A: histone H4-derived mutant peptide (GKGGAARHRKV; UniProt P62805 12-22, looked up, variant K16A)

ITC titration, Kd (MLL4_(ePHD6)1475–1564): NB
ITC titration, Kd (MLL3_(ePHD6)1055–1144): NB
Substance: H411–21R17A: histone H4-derived mutant peptide (GKGGAKAHRKV; UniProt P62805 12-22, looked up, variant R17A)

binding to ePHD6 of MLL4 (in words) (MLL4_(ePHD6)1475–1564): weakened the binding significantly
ITC titration, Kd (MLL4_(ePHD6)1475–1564): Weak binding
binding to ePHD6 of MLL3 (in words) (MLL3_(ePHD6)1055–1144): weakened the binding significantly
ITC titration, Kd (MLL3_(ePHD6)1055–1144): Weak binding
Substance: H411–21R19A: histone H4-derived mutant peptide (GKGGAKRHAKV; UniProt P62805 12-22, looked up, variant R19A)
